Data taken from paper PMC3234234, “A Host Small GTP-binding Protein ARL8 Plays Crucial Roles in Tobamovirus RNA Replication” (PLoS Pathogens, 2011).

Tests used:
[1] = biological target: AtARL8a-Cub-PLV (split-ubiquitin bait) (Arabidopsis thaliana) (UniProt Q8VY57); assay: two-hybrid; split-ubiquitin assay in yeast reporter strain L40; Cub-PLV fusion as bait, NubG fusion as prey; beta-galactosidase activity (Miller units)
[2] = biological target: T1, AtTOM1-Cub-PLV (split-ubiquitin bait) (Arabidopsis thaliana, UniProt Q9FEG2 1-291); assay: as above; details: partners not purified
T1 construct: Arabidopsis thaliana TOM1, seven-pass transmembrane protein; source: yeast two-hybrid fusion (split-ubiquitin, reporter strain L40); not shown: Cub-PLV, C-terminal, kept
T1 sequence (looked up): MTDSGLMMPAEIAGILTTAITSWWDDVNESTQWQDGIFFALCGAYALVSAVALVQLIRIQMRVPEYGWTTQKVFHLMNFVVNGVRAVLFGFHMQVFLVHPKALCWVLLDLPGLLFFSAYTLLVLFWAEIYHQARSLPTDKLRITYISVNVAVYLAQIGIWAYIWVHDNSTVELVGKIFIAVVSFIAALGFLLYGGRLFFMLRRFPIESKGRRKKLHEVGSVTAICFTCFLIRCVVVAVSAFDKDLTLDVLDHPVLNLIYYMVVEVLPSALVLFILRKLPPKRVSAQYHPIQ

Question: For “NubG-HEL: helicase domain polypeptide of ToMV replication proteins (residues 648-1116 of the 130K protein) (domain or fragment)”, which fold weaker signal (beta-galactosidase) than the TOM1-helicase domain pair [1] is on record?
Answer: 13 times weaker

B1: AtARL8a-NubG (split-ubiquitin prey) (natural protein, Arabidopsis thaliana, UniProt Q8VY57 1-184, looked up)
chain: MGLLEAFLNWLRSLFFKQEMELSLIGLQNAGKTSLVNVVATGGYSEDMIPTVGFNMRKVTKGNVTIKLWDLGGQPRFRSMWERYCRAVSAIVYVVDAADPDNLSVSKSELHDLLSKTSLNGIPLLVLGNKIDKPGALSKEALTDEMGLTSLTDREVCCFMISCKNSTNIDQVIDWLVKHSKSKN
notes: Arabidopsis thaliana ARL8a; 'a DNA fragment corresponding to the AtARL8a-coding region' put in place of TOM1 in pTN-TOM1-NubG; also called ARL8-NubG; source: yeast two-hybrid fusion (split-ubiquitin, reporter strain L40); not shown: NubG, C-terminal, kept
Question: For B1, which “fold weaker signal (beta-galactosidase) than the TOM1-helicase domain pair” value [2] is on record?
Answer: 6 times weaker
